Patent publication US12404607

Assays:
[1] = target: SARS-CoV-2 spike receptor binding domain (RBD) antigen (SARS-CoV-2) (UniProt P0DTC2); assay: ELISA, coated RBD
[2] = target: SARS CoV-2 Spike RBD protein of the Spike:ACE2 blocking ELISA (BPS Bioscience) (SARS-CoV-2) (UniProt P0DTC2); assay: competition ELISA: RBD coated, test article, then ACE2-His (competitor)
[3] = target: SARS-CoV-2 spike S1 antigen (SARS-CoV-2) (UniProt P0DTC2); assay: ELISA, coated S1
[4] = target: SARS-CoV-2 spike on GFP reporter pseudotype virus (Integral Molecular) (SARS-CoV-2) (UniProt P0DTC2); assay: cell-based or functional assay
SARS CoV RBD (SARS-CoV) = SARS CoV RBD (SARS-CoV) (UniProt P59594); assay: ELISA, antigen coated at 2 ug/mL

## SARS CoV-2 mAb [SAD-S35] (Acro Biosystems) (antibody)
[1]
  EC50: 0.057 µg/mL
[2]
  IC50: 1.1 µg/mL
[3]
  EC50: 0.058 µg/mL
[4]
  CoV-2 pseudotype neutralization IC50: 260 ng/mL

## SARS CoV mAb [CR3022] (Absolute Antibody)
[1]
  EC50: 0.088 µg/mL
[3]
  EC50: 0.078 µg/mL
[4]
  CoV-2 pseudotype neutralization IC50: 100000 ng/mL

## rCIG (recombinant coronavirus-2 immune globulin; recombinant anti-coronavirus 19 hyperimmune gammaglobulin)
[1]
  EC50: 0.1 µg/mL
[2]
  IC50: 2.2 µg/mL
[3]
  EC50: 0.092 µg/mL
SARS CoV RBD (SARS-CoV)
  EC50: 0.6 µg/mL
[4]
  CoV-2 pseudotype neutralization IC50: 430 ng/mL
